Earlier results in article PMC5340040 (BMC Biochemistry, 2017).

Tested on: actin
Conditions: ref [10]
Source text: Actin is a negatively charged structural protein and the most abundant protein in the eukaryotic cells. Actin, released from dead cells, is also present in the saliva. Actin has important roles in cytoskeleton formation, cell division, motility, adhesion, signaling and more. Actin exists in either monomer globular (G) or polymer filament (F) form, which are interconvertible into each other.

B1: eEF1A: eukaryotic elongation factor 1 alpha (protein, UniProt P02994 2-458, looked up)
Elongation factor 1-alpha: GKEKSHINVVVIGHVDSGKSTTTGHLIYKCGGIDKRTIEKFEKEAAELGKGSFKYAWVLDKLKAERERGITIDIALWKFETPKYQVTVIDAPGHRDFIKNMITGTSQADCAILIIAGGVGEFEAGISKDGQTREHALLAFTLGVRQLIVAVNKMDSVKWDESRFQEIVKETSNFIKKVGYNPKTVPFVPISGWNGDNMIEATTNAPWYKGWEKETKAGVVKGKTLLEAIDAIEQPSRPTDKPLRLPLQDVYKIGGIGTVPVGRVETGVIKPGMVVTFAPAGVTTEVKSVEMHHEQLEQGVPGDNVGFNVKNVSVKEIRRGNVCGDAKNDPPKGCASFNATVIVLNHPGQISAGYSPVLDCHTAHIACRFDELLEKNDRRSGKKLEDHPKFLKSGDAALVKFVPSKPMCVEAFSEYPPLGRFAVRDMRQTVAVGVIKSVDKTEKAAKVTKAAQKAAKK
polymerization and bundling of actin, eEF1A: polymerize G-actin to F actin and bundle F-actin into actin bundles
